Assay results from US20220412975.

T1: TSP1-5 substrate, (HiLyteFluor-488)-SSMVLELRGLRT-K(QXL520)-NH2
T1 chain: SSMVLELRGLRTK

T2: TSP1-3 substrate, (HiLyteFluor-488)-KVTEENKELANELRR-K(QXL520)-NH2
T2 chain: KVTEENKELANELRRK

T3: TSP1-1 substrate, (HiLyteFluor-488)-DELSSMVLELRGLRT-K(QXL520)-NH2
T3 chain: DELSSMVLELRGLRTK

T4: TSP1-2 substrate, (HiLyteFluor-488)-SSMVLELRGLRTIVT-K(QXL520)-NH2
T4 chain: SSMVLELRGLRTIVTK

T5: COMP2 candidate peptide, (Donor) SPGFRC(Acm)EAC(Acm)PPGYS (K-Quencher)
T5 chain: SPGFRCEACPPGYS

T6: COMP1 candidate peptide, (Donor) GMQQSVRTGLPS (K-Quencher)
T6 chain: GMQQSVRTGLPS

T7: TSP1-4 substrate, (HiLyteFluor-488)-EENKELANELRRPPL-K(QXL520)-NH2
T7 chain: EENKELANELRRPPLK

T8: (HiLyteFluor-488)-DELSSMVLELRGLRT-K(QXL520)-E-NH2
T8 chain: DELSSMVLELRGLRTK


What was measured:
[1] = biological target: T1, TSP1-5 substrate, …
[2] = biological target: T2, TSP1-3 substrate, …
[3] = biological target: T3, TSP1-1 substrate, …
[4] = biological target: T4, TSP1-2 substrate, …
[5] = biological target: T5, COMP2 candidate peptide, (Donor) …
[6] = biological target: T6, COMP1 candidate peptide, (Donor) …
[7] = biological target: T7, TSP1-4 substrate, …
[8] = biological target: T8, (HiLyteFluor-488)-DELSSMVLELRGLRT-K(QXL5 …)

| Protein | FRET peptide cleavage (Relative Fluorescence Units over time) [1] | kcat [1] [s⁻¹] | kcat [2] [s⁻¹] | FRET peptide cleavage (Relative Fluorescence Units over time) [3] | kcat [3] [s⁻¹] | FRET peptide cleavage (Relative Fluorescence Units over time) [4] | kcat [4] [s⁻¹] | kcat [5] [s⁻¹] | kcat [6] [s⁻¹] | kcat [7] [s⁻¹] | FRET peptide cleavage (increase of fluorescence intensity) [8] | FRET peptide cleavage (Relative Fluorescence Units over time) [2] | FRET peptide cleavage (Relative Fluorescence Units over time) [5] | FRET peptide cleavage (Relative Fluorescence Units over time) [6] | FRET peptide cleavage (Relative Fluorescence Units over time) [7] |
| --- | --- | --- | --- | --- | --- | --- | --- | --- | --- | --- | --- | --- | --- | --- | --- |
| rADAMTS-7 (Rat 1-575)-Flag (protein) LPTEGRAGLDIVHPVRVDAGGSFLSYELWPRVLRKRDVSAAQASSAFYQLQYQGRELLFNLTTNPYLLAPGFVSEIRRRSNLSNVHIQTSVPTCHLLGDVQDPELEGGFAAISACDGLRGVFQLSNEDYFIEPLDEVPAQPGHAQPHMVYKHKRSGQQDDSRTSGTCGVQGSPELKHQREHWEQRQQKRRQQRSISKEKWVETLVVADSKMVEYHGQPQVESYVLTIMNMVAGLYHDPSIGNPIHITVVRLIILEDEEKDLKITHHADDTLKNFCRWQKNVNMKGDDHPQHHDTAILLTRKDLCATMNHPCETLGLSHVAGLCHPQLSCSVSEDTGLPLAFTVAHELGHSFGIQHDGTGNDCESIGKRPFIMSPQLLYDRGIPLTWSRCSREYITRFLDRGWGLCLDDRPSKGVINFPSVLPGVLYDVNHQCRLQYGPSSAYCEDVDNVCYTLWCSVGTTCHSKMDAAVDGTSCGKNKWCLNGECVPEGFQPETVDGGWSGWSAWSVCSRSCGVGVRSSERQCTQPVPKNKGKYCVGERKRYRLCNLQACPENLYFQGDYKDDDDK | along with S2 and S5 peptides containing the E289⬇L290 cleavage site | 4.17e-05 | 2.33e-05 | Activity data from the rat ADAMTS-7 construct identified TSP1 S1 (SEQ ID NO: 4) as the substrate | 0.000167 | along with S2 and S5 peptides containing the E289⬇L290 cleavage site | 0.000128 | 8.33e-06 | 8.17e-06 | 4.33e-05 |  |  |  |  |  |
| Rat/human ADAMTS-12 chimera, rPro-hCD (Rat 1-244/Human 241-543)-3xFLAG (protein) HGRQAQPWPVRFPDPKQEHFIKSLPEYHIVSPVQVDASGHFLSYGLHHPVTGSRKKRAAGGSGDQVYYRISHEEKNLFFNLTVNWEFLSNGYVVERRYGNLSHVKMAASSGQPCHLRGTVLQQGPTIRMGTAALSACQGLTGFFHLPHGDFFIEPVKKHPLTEEGYQPHVIYRRQSYRVPETKEPTCGLKDSLDNSVKQELQREKWERKNWPSRSLSRRSISKERWVETLVVADTKMIEYHGSENVESYILTIMNMVTGLFHNPSIGNAIHIVVVRLILLEEEEQGLKIVHHAEKTLSSFCKWQKSINPKSDLNPVHHDVAVLLTRKDICAGFNRPCETLGLSHLSGMCQPHRSCNINEDSGLPLAFTIAHELGHSFGIQHDGKENDCEPVGRHPYIMSRQLQYDPTPLTWSKCSEEYITRFLDRGWGFCLDDIPKKKGLKSKVIAPGVIYDVHHQCQLQYGPNATFCQEVENVCQTLWCSVKGFCRSKLDAAADGTQCGEKKWCMAGKCITVGKKPESIPGGGGSDYKDHDGDYKDHDIDYKDDDDK |  |  |  |  |  |  |  |  |  |  | It was surprisingly found that the same substrate could be used for the paralogs ADAMTS-7 and ADAMTS-12 |  |  |  |  |
| purified ADAMTS-7 E389Q catalytic inactive proteins (protein) SVSKEKWVETLVVADAKMVEYHGQPQVESYVLTIMNMVAGLFHDPSIGNPIHITIVRLVLLEDEEEDLKITHHADNTLKSFCKWQKSINMKGDAHPLHHDTAILLTRKDLCAAMNRPCETLGLSHVAGMCQPHRSCSINEDTGLPLAFTVAHQLGHSFGIQHDGSGNDCEPVGKRPFIMSPQLLYDAAPLTWSRCSRQYITRFLDRGWGLCLDDPPAKDIIDFPSVPPGVLYDVSHQCRLQYGAYSAFCEDMDNVCHTLWCSVGTTCHSKLDAAVDGTRCGENKWCLSGECVPVGFRPEAV | Significant activity was not observed with substrates ... with incubation with purified ADAMTS-7 E389Q catalytic inactive proteins (data not shown |  |  | Significant activity was not observed with substrates ... with incubation with purified ADAMTS-7 E389Q catalytic inactive proteins (data not shown |  | Significant activity was not observed with substrates ... with incubation with purified ADAMTS-7 E389Q catalytic inactive proteins (data not shown |  |  |  |  |  | Significant activity was not observed with substrates ... with incubation with purified ADAMTS-7 E389Q catalytic inactive proteins (data not shown | Significant activity was not observed with substrates ... with incubation with purified ADAMTS-7 E389Q catalytic inactive proteins (data not shown | Significant activity was not observed with substrates ... with incubation with purified ADAMTS-7 E389Q catalytic inactive proteins (data not shown | Significant activity was not observed with substrates ... with incubation with purified ADAMTS-7 E389Q catalytic inactive proteins (data not shown |
